Experimental data taken from US20090317391A1 (Novartis, published 2009).

Tests used:
[1] = tested on: tm-PTPε (wild type, stably expressed in NIH/3T3 and Rat-1 cells)
[2] = tested on: tm-PTPε A24C mutant, V5-tagged
[3] = tested on: tm-PTPε Q26C mutant, V5-tagged
[4] = target: the molecule itself; assay: V5 immunoblot, non-reducing conditions (figure legend; self-dimer)
Method: Whole cell lysates were prepared from NIH/3T3 transiently transfected with vectors expressing either a V5-tagged wild-type PTPRε or PTPRε P20C, D21C, P22C, G23C, A24C, S25C, Q26C mutants, as well as from empty vector control cell lines. Cell lysis was carried out in the presence of 20 mM iodacetamide. Iodacetamide inhibits glutathione reductase, the enzyme responsible for disulfide bridge reduction in vivo, to minimize dimmer cleavage. All the constructs encode a V5-tagged protein. Samples were analyzed in reducing and non-reducing conditions and immunoblotted, for wild-type or tm-PTPε mutant protein expression by probing with a V5-specific antibody. All the proteins are expressed as monomers in reducing conditions (FIG. 20A). In non-reducing conditions, however, while wild-type tm-PTPε was unable to form a dimer (because it is lacking cysteines in its extracellular domain), all tm-PTPε mutants formed dimers (FIG. 20B).

**Q.** Src was tested. Which “Src-Y529 phosphorylation levels (immunoblot with a Src-Y529 phospho-specific antibody)” value (from here on “Src-Y529 phosphorylation levels”) [1] did it give?
**A.** tm-PTPε overexpression cause Src-Tyr-529 dephosphorylation in NIH/3T3 and Rat-1 cells

**Q.** What about the “Src-Y529 phosphorylation levels” value [2] of the same molecule?
**A.** Both clones of tm-PTPε A24C mutant were unable to dephosphorylate Src-Y529

**Q.** What about the “Src-Y529 phosphorylation levels” value [3] of the same molecule?
**A.** Like wild-type tm-PTPε, PTPRεQ26C mutant was able to dephosphorylate Src-Y529

B1: tm-PTPε P20C mutant, V5-tagged (receptor, not shown: small tags and cut ends)
chain: LRGNETTADSNETTTTSGPCDPGASQPLLAWLLLPLLLLLLVLLLAAYFFRFRKQRKAVVSTSDKKMPNGILEEQEQQRVMLLSRSPSGPKKYFPIPVEHLEEEIRIRSADDCKQFREEFNSLPSGHIQGTFELANKEENREKNRYPNILPNDHSRVILSQLDGIPCSDYINASYIDGYKEKNKFIAAQGPKQETVNDFWRMVWEQKSATIVMLTNLKERKEEKCHQYWPDQGCWTYGNIRVCVEDCVVLVDYTIRKFCIQPQLPDGCKAPRLVSQLHFTSWPDFGVPFTPIGMLKFLKKVKTLNPVHAGPIVVHCSAGVGRTGTFIVIDAMMAMMHAEQKVDVFEFVSRIRNQRPQMVQTDMQYTFIYQALLEYYLYGDTELDVSSLEKHLQTMHGTTTHFDKIGLEEEFRKLTNVRIMKENMRTGNLPANMKKARVIQIIPYDFNRVILSMKRGQEYTDYINASFIDGYRQKDYFIATQGPLAHTVEDFWRMIWEWKSHTIVMLTEVQEREQDKCYQYWPTEGSVTHGEITIEIKNDTLSEAISIRDFLVTLNQPQARQEEQVRVVRQFHFHGWPEIGIPAEGKGMIDLIAAVQKQQQQTGNHPITVHCSAGAGRTGTFIALSNILERVKAEGLLDVFQAVKSLRLQRPHMVQTLEQYEFCYKVVQDFIDIFSDYANFK
notes: Transiently expressed in NIH/3T3 cells; also called PTPRε P20C
**Q.** Does B1 bind [4]?
**A.** binds

B2: tm-PTPε S25C mutant, V5-tagged (receptor, not shown: small tags and cut ends)
chain: LRGNETTADSNETTTTSGPPDPGACQPLLAWLLLPLLLLLLVLLLAAYFFRFRKQRKAVVSTSDKKMPNGILEEQEQQRVMLLSRSPSGPKKYFPIPVEHLEEEIRIRSADDCKQFREEFNSLPSGHIQGTFELANKEENREKNRYPNILPNDHSRVILSQLDGIPCSDYINASYIDGYKEKNKFIAAQGPKQETVNDFWRMVWEQKSATIVMLTNLKERKEEKCHQYWPDQGCWTYGNIRVCVEDCVVLVDYTIRKFCIQPQLPDGCKAPRLVSQLHFTSWPDFGVPFTPIGMLKFLKKVKTLNPVHAGPIVVHCSAGVGRTGTFIVIDAMMAMMHAEQKVDVFEFVSRIRNQRPQMVQTDMQYTFIYQALLEYYLYGDTELDVSSLEKHLQTMHGTTTHFDKIGLEEEFRKLTNVRIMKENMRTGNLPANMKKARVIQIIPYDFNRVILSMKRGQEYTDYINASFIDGYRQKDYFIATQGPLAHTVEDFWRMIWEWKSHTIVMLTEVQEREQDKCYQYWPTEGSVTHGEITIEIKNDTLSEAISIRDFLVTLNQPQARQEEQVRVVRQFHFHGWPEIGIPAEGKGMIDLIAAVQKQQQQTGNHPITVHCSAGAGRTGTFIALSNILERVKAEGLLDVFQAVKSLRLQRPHMVQTLEQYEFCYKVVQDFIDIFSDYANFK
notes: Transiently expressed in NIH/3T3 cells; also called PTPRε S25C
**Q.** Does B2 bind [4]?
**A.** binds

B3: tm-PTPε D21C mutant, V5-tagged (receptor, not shown: small tags and cut ends)
chain: LRGNETTADSNETTTTSGPPCPGASQPLLAWLLLPLLLLLLVLLLAAYFFRFRKQRKAVVSTSDKKMPNGILEEQEQQRVMLLSRSPSGPKKYFPIPVEHLEEEIRIRSADDCKQFREEFNSLPSGHIQGTFELANKEENREKNRYPNILPNDHSRVILSQLDGIPCSDYINASYIDGYKEKNKFIAAQGPKQETVNDFWRMVWEQKSATIVMLTNLKERKEEKCHQYWPDQGCWTYGNIRVCVEDCVVLVDYTIRKFCIQPQLPDGCKAPRLVSQLHFTSWPDFGVPFTPIGMLKFLKKVKTLNPVHAGPIVVHCSAGVGRTGTFIVIDAMMAMMHAEQKVDVFEFVSRIRNQRPQMVQTDMQYTFIYQALLEYYLYGDTELDVSSLEKHLQTMHGTTTHFDKIGLEEEFRKLTNVRIMKENMRTGNLPANMKKARVIQIIPYDFNRVILSMKRGQEYTDYINASFIDGYRQKDYFIATQGPLAHTVEDFWRMIWEWKSHTIVMLTEVQEREQDKCYQYWPTEGSVTHGEITIEIKNDTLSEAISIRDFLVTLNQPQARQEEQVRVVRQFHFHGWPEIGIPAEGKGMIDLIAAVQKQQQQTGNHPITVHCSAGAGRTGTFIALSNILERVKAEGLLDVFQAVKSLRLQRPHMVQTLEQYEFCYKVVQDFIDIFSDYANFK
notes: Transiently expressed in NIH/3T3 cells; also called PTPRε D21C
**Q.** Does B3 bind [4]?
**A.** binds

B4: tm-PTPε G23C mutant, V5-tagged (receptor, not shown: small tags and cut ends)
chain: LRGNETTADSNETTTTSGPPDPCASQPLLAWLLLPLLLLLLVLLLAAYFFRFRKQRKAVVSTSDKKMPNGILEEQEQQRVMLLSRSPSGPKKYFPIPVEHLEEEIRIRSADDCKQFREEFNSLPSGHIQGTFELANKEENREKNRYPNILPNDHSRVILSQLDGIPCSDYINASYIDGYKEKNKFIAAQGPKQETVNDFWRMVWEQKSATIVMLTNLKERKEEKCHQYWPDQGCWTYGNIRVCVEDCVVLVDYTIRKFCIQPQLPDGCKAPRLVSQLHFTSWPDFGVPFTPIGMLKFLKKVKTLNPVHAGPIVVHCSAGVGRTGTFIVIDAMMAMMHAEQKVDVFEFVSRIRNQRPQMVQTDMQYTFIYQALLEYYLYGDTELDVSSLEKHLQTMHGTTTHFDKIGLEEEFRKLTNVRIMKENMRTGNLPANMKKARVIQIIPYDFNRVILSMKRGQEYTDYINASFIDGYRQKDYFIATQGPLAHTVEDFWRMIWEWKSHTIVMLTEVQEREQDKCYQYWPTEGSVTHGEITIEIKNDTLSEAISIRDFLVTLNQPQARQEEQVRVVRQFHFHGWPEIGIPAEGKGMIDLIAAVQKQQQQTGNHPITVHCSAGAGRTGTFIALSNILERVKAEGLLDVFQAVKSLRLQRPHMVQTLEQYEFCYKVVQDFIDIFSDYANFK
notes: Transiently expressed in NIH/3T3 cells; also called PTPRε G23C
**Q.** Does B4 bind [4]?
**A.** binds

B5: tm-PTPε P22C mutant, V5-tagged (receptor, not shown: small tags and cut ends)
chain: LRGNETTADSNETTTTSGPPDCGASQPLLAWLLLPLLLLLLVLLLAAYFFRFRKQRKAVVSTSDKKMPNGILEEQEQQRVMLLSRSPSGPKKYFPIPVEHLEEEIRIRSADDCKQFREEFNSLPSGHIQGTFELANKEENREKNRYPNILPNDHSRVILSQLDGIPCSDYINASYIDGYKEKNKFIAAQGPKQETVNDFWRMVWEQKSATIVMLTNLKERKEEKCHQYWPDQGCWTYGNIRVCVEDCVVLVDYTIRKFCIQPQLPDGCKAPRLVSQLHFTSWPDFGVPFTPIGMLKFLKKVKTLNPVHAGPIVVHCSAGVGRTGTFIVIDAMMAMMHAEQKVDVFEFVSRIRNQRPQMVQTDMQYTFIYQALLEYYLYGDTELDVSSLEKHLQTMHGTTTHFDKIGLEEEFRKLTNVRIMKENMRTGNLPANMKKARVIQIIPYDFNRVILSMKRGQEYTDYINASFIDGYRQKDYFIATQGPLAHTVEDFWRMIWEWKSHTIVMLTEVQEREQDKCYQYWPTEGSVTHGEITIEIKNDTLSEAISIRDFLVTLNQPQARQEEQVRVVRQFHFHGWPEIGIPAEGKGMIDLIAAVQKQQQQTGNHPITVHCSAGAGRTGTFIALSNILERVKAEGLLDVFQAVKSLRLQRPHMVQTLEQYEFCYKVVQDFIDIFSDYANFK
notes: Transiently expressed in NIH/3T3 cells; also called PTPRε P22C
**Q.** Does B5 bind [4]?
**A.** binds

B6: tm-PTPε Q26C mutant, V5-tagged (receptor, not shown: small tags and cut ends)
chain: LRGNETTADSNETTTTSGPPDPGASCPLLAWLLLPLLLLLLVLLLAAYFFRFRKQRKAVVSTSDKKMPNGILEEQEQQRVMLLSRSPSGPKKYFPIPVEHLEEEIRIRSADDCKQFREEFNSLPSGHIQGTFELANKEENREKNRYPNILPNDHSRVILSQLDGIPCSDYINASYIDGYKEKNKFIAAQGPKQETVNDFWRMVWEQKSATIVMLTNLKERKEEKCHQYWPDQGCWTYGNIRVCVEDCVVLVDYTIRKFCIQPQLPDGCKAPRLVSQLHFTSWPDFGVPFTPIGMLKFLKKVKTLNPVHAGPIVVHCSAGVGRTGTFIVIDAMMAMMHAEQKVDVFEFVSRIRNQRPQMVQTDMQYTFIYQALLEYYLYGDTELDVSSLEKHLQTMHGTTTHFDKIGLEEEFRKLTNVRIMKENMRTGNLPANMKKARVIQIIPYDFNRVILSMKRGQEYTDYINASFIDGYRQKDYFIATQGPLAHTVEDFWRMIWEWKSHTIVMLTEVQEREQDKCYQYWPTEGSVTHGEITIEIKNDTLSEAISIRDFLVTLNQPQARQEEQVRVVRQFHFHGWPEIGIPAEGKGMIDLIAAVQKQQQQTGNHPITVHCSAGAGRTGTFIALSNILERVKAEGLLDVFQAVKSLRLQRPHMVQTLEQYEFCYKVVQDFIDIFSDYANFK
notes: Transiently expressed in NIH/3T3 cells (dimer blot) and stably in Rat-1 clones #1 and #30 (Src-Y529 blot); also called PTPRε Q26C; PTPRεQ26C
**Q.** Does B6 bind [4]?
**A.** binds

B7: tm-PTPε A24C mutant, V5-tagged (receptor, not shown: small tags and cut ends)
chain: LRGNETTADSNETTTTSGPPDPGCSQPLLAWLLLPLLLLLLVLLLAAYFFRFRKQRKAVVSTSDKKMPNGILEEQEQQRVMLLSRSPSGPKKYFPIPVEHLEEEIRIRSADDCKQFREEFNSLPSGHIQGTFELANKEENREKNRYPNILPNDHSRVILSQLDGIPCSDYINASYIDGYKEKNKFIAAQGPKQETVNDFWRMVWEQKSATIVMLTNLKERKEEKCHQYWPDQGCWTYGNIRVCVEDCVVLVDYTIRKFCIQPQLPDGCKAPRLVSQLHFTSWPDFGVPFTPIGMLKFLKKVKTLNPVHAGPIVVHCSAGVGRTGTFIVIDAMMAMMHAEQKVDVFEFVSRIRNQRPQMVQTDMQYTFIYQALLEYYLYGDTELDVSSLEKHLQTMHGTTTHFDKIGLEEEFRKLTNVRIMKENMRTGNLPANMKKARVIQIIPYDFNRVILSMKRGQEYTDYINASFIDGYRQKDYFIATQGPLAHTVEDFWRMIWEWKSHTIVMLTEVQEREQDKCYQYWPTEGSVTHGEITIEIKNDTLSEAISIRDFLVTLNQPQARQEEQVRVVRQFHFHGWPEIGIPAEGKGMIDLIAAVQKQQQQTGNHPITVHCSAGAGRTGTFIALSNILERVKAEGLLDVFQAVKSLRLQRPHMVQTLEQYEFCYKVVQDFIDIFSDYANFK
notes: Transiently expressed in NIH/3T3 cells (dimer blot) and stably in Rat-1 clones #8 and #26 (Src-Y529 blot); also called PTPRε A24C; PTPRε.A24C
**Q.** Does B7 bind [4]?
**A.** binds
